Experimental data as given in US20140274782A1, “AFFINITY REAGENTS AND METHODS FOR DETECTION, PURIFICATION, AND PROTEOMIC ANALYSIS OF METHYLATED PROTEINS” (The Board of Trustees of the Leland Stanford Junior …, priority 2013, published 2014).

T1: mono- and di-methylated lysine peptides (H4K20, p53K382 and other histone and non-histone peptides) (Homo sapiens, UniProt Q9Y468)
T1 construct: made in house; host or cells: E. coli
T1 sequence (Q9Y468 258-598): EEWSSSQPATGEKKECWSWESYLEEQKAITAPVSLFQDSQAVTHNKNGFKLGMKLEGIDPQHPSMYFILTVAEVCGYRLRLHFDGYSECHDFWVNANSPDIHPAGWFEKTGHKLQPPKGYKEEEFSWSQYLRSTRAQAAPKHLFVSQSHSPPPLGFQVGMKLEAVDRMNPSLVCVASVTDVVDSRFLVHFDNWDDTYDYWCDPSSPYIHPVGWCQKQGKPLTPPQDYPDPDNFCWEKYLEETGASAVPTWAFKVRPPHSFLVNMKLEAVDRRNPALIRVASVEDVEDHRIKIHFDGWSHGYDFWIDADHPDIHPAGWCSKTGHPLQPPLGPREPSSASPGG

T2: over 100 distinct histone and non-histone peptides with different post-translational modifications (Homo sapiens, UniProt Q9Y468)
T2 construct: made in house; host or cells: E. coli
T2 sequence (Q9Y468 258-598): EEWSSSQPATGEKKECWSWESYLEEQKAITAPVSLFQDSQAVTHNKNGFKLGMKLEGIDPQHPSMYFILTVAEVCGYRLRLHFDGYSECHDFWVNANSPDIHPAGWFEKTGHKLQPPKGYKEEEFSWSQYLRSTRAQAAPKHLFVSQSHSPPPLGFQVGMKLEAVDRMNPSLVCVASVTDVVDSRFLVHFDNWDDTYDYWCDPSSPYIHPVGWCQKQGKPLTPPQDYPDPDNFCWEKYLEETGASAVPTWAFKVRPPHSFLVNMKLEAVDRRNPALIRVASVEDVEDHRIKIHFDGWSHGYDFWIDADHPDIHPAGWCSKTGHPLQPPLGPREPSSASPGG


Key:
3×MBT domain of L3MBTL1 = test: SILAC proteomic pull-down 3×MBT vs 3×MBTD355N from 293T nuclear extract, LC-MS/MS; type: binding, human
Description: Protein pull-downs were performed as described above using 600 μg of nuclear extract prepared with isotopic labels as indicated. After eluting with glutathione, 3×MBT domain was removed by dialysis into high salt and rebinding to GSH-sepharose. Bound proteins were separated by SDS-PAGE and analyzed by in-gel tryptic digest followed by LC-MS/MS. Peptides were identified using MaxQuant version 1.2.2.5 (Cox and Mann (2008) Nat. Biotechnol. 26, 1367-1372) and candidate methylated peptides were verified by manual inspection.
For stable isotope labeling by amino acids in cell culture (SILAC) experiments HEK 293T cells were grown for at least six doublings in DMEM for SILAC supplemented with 10% dialyzed fetal bovine serum (FBS), 230 mg/L L-proline and either 100 mg/L each of L-lysine and L-arginine (“light” medium), D4-L-lysine and ^13C6-L-arginine (“medium” media), or ^13C6^15N2-L-lysine and ^13C6^15N4-L-arginine (Thermo Scientific). Heavy methyl labeling used DMEM without L-Methionine or L-Cysteine supplemented with D3^13C-L-Methionine (Sigma), L-Cysteine (Sigma) and 10% dialyzed FBS.
600 μg of nuclear extract was incubated overnight rotating at 4° C. with 20 μl packed 3×MBT or 3×MBTD355N beads in a total volume of 250 μL with binding buffer. Supernatant was removed and saved for use as a loading control. Beads were washed 4×5 minutes with 0.5 mL binding buffer. Protein was eluted by incubating in 20 μL elution buffer (10 mg/mL glutathione in 50 mM Tris pH 8.0) rotating at 4° C. for four hours. Elutions from 3×MBT and 3×MBTD355N were combined and dialyzed overnight at 4° C. against 10,000× volume of dissociation buffer (50 mM Tris pH 7.5, 750 mM NaCl) in a 0.1 mL Slide-A-Lyzer MINI Dialysis Device with 3.5K molecular weight cutoff (Thermo Scientific). 80 μL of GSH-Sepharose was prepared by washing briefly three times with 0.5 mL binding buffer. Dialyzed proteins were added to the GSH-Sepharose and incubated 4 hours rotating at 4° C. to deplete the GST-fusion domains. Supernatant was transferred to a fresh 1.5 mL tube. Proteins were separated by SDS-PAGE on a 10% polyacrylamide gel and stained using SilverQuest Silver Staining Kit (Life Technologies). Lanes were excised, residual 3×MBT band was removed, and gel was diced into 0.5 mm cubes. Gel pieces were destained and processed by in-gel digestion (Carlson et al. (2011) Science Signaling 4) with sequencing grade trypsin (Promega) and the peptide sample was dried completely in a vacuum centrifuge. To prepare a loading control, 2 μL each of light and heavy nuclear extract were combined, 6 μL of 8M urea was added, proteins were denatured by adding 2 μL of 100 mM dithiothreitol in digest buffer (50 mM ammonium bicarbonate) and heating to 60° C. for 1 hour, cysteine was alkylated by adding 2.2 μL 100 mg/mL iodoacetamide in digest buffer and incubating 1 hour at room temperature in darkness, and proteins were digested by adding 80 μL trypsin (Promega) at 12.5 ng/μL in digest buffer and incubating overnight at room temperature in darkness. Digestion was stopped by adding 10 μL of 10% formic acid.
Each experiment consisted of two sets of pull-downs: “forward” labeling with 3×MBT incubated with light nuclear extract and 3×MBTD355N with medium extract, and a second “reverse” labeling experiment with the label conditions swapped. Proteins were included in the results if they were quantified in both labeling directions. To determine reproducibility the entire experiment including the label swap was duplicated using independent protein preparations and a mass spectrometer at another institution.
For 3×MBT pull-down experiment #1 the gel lane was processed and peptides were loaded off-line onto a first dimension trap column (Waters Xbridge, C18, 10 μm particle size, 100 Å pore size, 5 cm packing length, 150 μm column i.d.). […]

[1] = target: T1, mono- and di-methylated lysine peptides (H4K20, p53K382 and other histone and non-histone peptides); test: Peptide pull-down assay with biotinylated peptides, Western blot; type: binding
Description: (§1) Peptide pull-down assays were performed as previously described (Shi et al. (2006) Nature 442, 96-99), using 1 μg protein and 1 μg peptide per condition in binding buffer (50 mM Tris pH 7.5, 150 mM NaCl, 0.05% NP-40). Peptide arrays were performed as previously described (Bua et al., supra).

[2] = tested on: mono- and di-methylated lysine peptides (H4K20, p53K382 and other histone and non-histone peptides); test: as above; type: binding; settings: GST fusions, FIG. 1B
Description: as §1

[3] = target: T2, over 100 distinct histone and non-histone peptides with different post-translational modifications; test: Peptide array probed with GST-3×MBT; type: binding; settings: FIG. 1E
Description: as §1

G9a SET domain = target: T3, G9a SET domain (Homo sapiens, UniProt Q96KQ7); test: ProtoArray on-chip in vitro methylation, detected with 3xFlag-3xMBT; type: biochemical; settings: ProtoArrays bearing 9,500 recombinant human proteins
T3 construct: 50 μg of GST or recombinant GSTtagged G9a SET domain and the cofactor SAM
T3 sequence (Q96KQ7 1038-1155 limits assumed): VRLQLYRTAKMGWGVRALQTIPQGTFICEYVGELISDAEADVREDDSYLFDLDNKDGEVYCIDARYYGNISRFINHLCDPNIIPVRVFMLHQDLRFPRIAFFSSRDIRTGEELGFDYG
Description: The assay was conducted as previously described (Levy et al. (2011) Epigenetics Chromatin 4, 19). Briefly, a ProtoArray (Invitrogen, version 5.0) was incubated overnight with 50 μg of GST or recombinant GSTtagged G9a SET domain and the cofactor SAM.
Arrays were analyzed using GenePix Pro 6.1 software (Molecular Devices) and feature values were assigned to proteins using the array list provided by Invitrogen. We designated the following criteria for “hits”: GST array signal-to-noise ratio (SNR) less than or equal to 1.5, G9a array SNR greater than or equal to 10, and a difference between the G9a array SNR and the GST array SNR of greater than or equal to 12. Hits were individually visually validated. Proteins were removed from the list of potential substrates if irregular array features appeared to interfere with the array spots or SNR calculations.

binding to non-methylated peptides ([1]; FIG. 1D)	binding to tri-methylated peptides ([1]; FIG. 1D)	effect of acetylation of a neighboring lysine and phosphorylation of an N-terminally adjacent serine on binding ([1]; FIG. 2E)	effect of phosphorylation on a C-terminally adjacent serine on binding to mono- or di-methylated lysine ([1]; FIGS. 2A and 2B)	effect of arginine methylation one or two residues removed from the lysine methylation site on binding ([1]; FIGS. 2C and 2D)	binding to unmodified peptides, tri-methylated lysine peptides or peptides with other PTMs on peptide array [3]	number of peptides containing mono- and di-methylated lysine bound on peptide array ([3]; array of over 100 unique peptides)	number of proteins detected on the G9a-methylated array but not on the control array (G9a SET domain)	Molecule	Protein Ratio 3xMBT/D355N (3×MBT domain of L3MBTL1; SILAC ratio, 293T nuclear extract pull-down, * = protein identified in only one labeling experiment)	co-precipitation with panel of mono- and di-methylated peptides ([1]; histone and nonhistone peptides, FIG. 1C)	binding to mono- and di-methylated H4K20- and p53K382-containing peptides [2]	amount of protein captured from nucleoplasmic extract (3×MBT domain of L3MBTL1; 293T cells, silver stain, relative to the other domain)	number of the 544 identified proteins enriched at 2-fold versus the other domain (3×MBT domain of L3MBTL1; SILAC)	percentage of the 544 identified proteins enriched at 2-fold versus the other domain (3×MBT domain of L3MBTL1; SILAC) [%]
–	–	–	–	–	–	–	–	SCML2: protein with methylated lysine identified in 3xMBT pull-down (protein, UniProt Q9UQR0 1-700, looked up) Sex comb on midleg-like …: MGQTVNEDSMDVKKENQEKTPQSSTSSVQRDDFHWEEYLKETGSISAPSECFRQSQIPPVNDFKVGMKLEARDPRNATSVCIATVIGITGARLRLRLDGSDNRNDFWRLVDSPDIQPVGTCEKEGDLLQPPLGYQMNTSSWPMFLLKTLNGSEMASATLFKKEPPKPPLNNFKVGMKLEAIDKKNPYLICPATIGDVKGDEVHITFDGWSGAFDYWCKYDSRDIFPAGWCRLTGDVLQPPGTSVPIVKNIAKTESSPSEASQHSMQSPQKTTLILPTQQVRRSSRIKPPGPTAVPKRSSSVKNITPRKKGPNSGKKEKPLPVICSTSAASLKSLTRDRGMLYKDVASGPCKIVMSTVCVYVNKHGNFGPHLDPKRIQQLPDHFGPGPVNVVLRRIVQACVDCALETKTVFGYLKPDNRGGEVITASFDGETHSIQLPPVNSASFALRFLENFCHSLQCDNLLSSQPFSSSRGHTHSSAEHDKNQSAKEDVTERQSTKRSPQQTVPYVVPLSPKLPKTKEYASEGEPLFAGGSAIPKEENLSEDSKSSSLNSGNYLNPACRNPMYIHTSVSQDFSRSVPGTTSSPLVGDISPKSSPHEVKFQMQRKSEAPSYIAVPDPSVLKQGFSKDPSTWSVDEVIQFMKHTDPQISGPLADLFRQHEIDGKALFLLKSDVMMKYMGLKLGPALKLCYYIEKLKEGKYS	1.7	–	–	–	–	–
does not bind	binds very weakly	did not affect	decreased, but did not eliminate	little effect	did not bind	41	112	3×MBT: three MBT repeats of L3MBTL1 (amino acids 190-530 of accession NP—056293.4), expressed as GST or Flag fusion; methyl-lysine affinity reagent (protein, left off: a dimerising Fc or GST) EEWSSSQPATGEKKECWSWESYLEEQKAITAPVSLFQDSQAVTHNKNGFKLGMKLEGIDPQHPSMYFILTVAEVCGYRLRLHFDGYSECHDFWVNANSPDIHPAGWFEKTGHKLQPPKGYKEEEFSWSQYLRSTRAQAAPKHLFVSQSHSPPPLGFQVGMKLEAVDRMNPSLVCVASVTDVVDSRFLVHFDNWDDTYDYWCDPSSPYIHPVGWCQKQGKPLTPPQDYPDPDNFCWEKYLEETGASAVPTWAFKVRPPHSFLVNMKLEAVDRRNPALIRVASVEDVEDHRIKIHFDGWSHGYDFWIDADHPDIHPAGWCSKTGHPLQPPLGPREPSSASPGG	–	co-precipitates with thirteen different mono- and di-methylated peptides	binds	captured more proteins	313	57.5
